Target: albumin
Assay: albumin binding constant (K), same method as the earlier dye-albumin study; method not described

Ka: 86000 M⁻¹
Substance: LS838: Cypate-Cyclo(DCys-Gly-Arg-Asp-Ser-Pro-Cys)-Tyr-OH (peptide)
